Assay [1] concerns the target T1, human chemokine (C-C motif) receptor 8 (CCR8) (human, UniProt P51685 1-355).
T1 construct: also called hCCR8
The assay can be described thus: flow cytometry blocking, human PBMC, CD3+ gate; competitor PE-AB5. As for the experimental part: (§1) For blocking studies, 100 μL of the cell suspension were incubated with 10 μg purified isotype control, AB1, AB2, AB3, AB4, AB5, AB8, AB9, AB10, AB11, AB12, AB13, AB14, AB15, and Commercial ABI antibodies, or isotype control, as blocking agents.
(§2) After incubation with the blocking agent, the cells were incubated with 0.25 μg of the indicated PE-conjugated antibody plus anti-human CD4 APC or anti-human CD3 for another 15 minutes in the dark and then washed 2 times with Cell Staining Buffer, and acquired in a FACSCanto II flow cytometer (BD Biosciences); the data was analyzed using FCS Express (De Novo Software); MFI correspond to the CCR8+ CD4+ lymphocytes or CCR8+ CD3+ lymphocytes.
(§3) Percentage original MFI was calculated by dividing the MFI of samples blocked with AB1, AB2, AB3, AB4, AB5, AB6, AB7, AB8, AB9, AB10, AB11, AB12, AB13, AB14, AB15, and Commercial ABI antibodies, by the MFI of samples blocked with the corresponding isotype control. This value was subtracted from 100 to get a blocking percentage. The formula is shown below: […]
On the technique in general: A flow cytometer gives signals particle by particle.

Assay [2] concerns the target T1, human chemokine (C-C motif) receptor 8 …. The assay can be described thus: flow cytometry blocking, human PBMC, CD3+ gate; competitor PE-AB6. As for the experimental part:
as §1, §2, §3

For assay [3] the target is unchanged. The assay can be described thus: flow cytometry blocking, human PBMC, CD3+ gate; competitor PE-AB7. The procedure: as §1, §2, §3
Assay [4] has the same target. The assay can be described thus: flow cytometry blocking, human PBMC, CD3+ gate; competitor PE-AB8. The procedure: as §1, §2, §3
Assay [5] shares this target. The assay is described as follows: flow cytometry blocking, human PBMC, CD3+ gate; competitor PE-433H.
Assay [6] has the same target. The assay is described as follows: flow cytometry blocking, human PBMC, CD3+ gate; competitor PE-AB10. As for the experimental part: as §1, §2, §3
Assay [7] shares this target. The assay can be described thus: flow cytometry blocking, human PBMC, CD3+ gate; competitor PE-AB11. The procedure:
as §1, §2, §3

Assay [8] has the same target. The assay is described as follows: flow cytometry blocking, human PBMC, CD3+ gate; competitor PE-AB12. The procedure:
as §1, §2, §3

Assay [9] shares this target. The assay is described as follows: flow cytometry blocking, human PBMC, CD3+ gate; competitor PE-AB13. The procedure:
as §1, §2, §3

Assay [10] has the same target. The assay is described as follows: flow cytometry blocking, human PBMC, CD3+ gate; competitor PE-AB14. As for the experimental part: as §1, §2, §3
Assay [11] has the same target. The assay is described as follows: flow cytometry blocking, human PBMC, CD3+ gate; competitor PE-AB15. As for the experimental part: as §1, §2, §3
For assay [12] the target is unchanged. The assay is described as follows: flow cytometry blocking, human PBMC, CD3+ gate; competitor PE-L263G8.
The target is the same in assay [13]. The assay is described as follows: flow cytometry blocking, human PBMC, CD3+ gate; % cells stained by competitor PE-AB5 after block. The procedure: as §1, §2
Assay [14] has the same target. The assay can be described thus: flow cytometry blocking, human PBMC, CD3+ gate; % cells stained by competitor PE-AB6 after block. The procedure: as §1, §2
Assay [15] shares this target. The assay is described as follows: flow cytometry blocking, human PBMC, CD3+ gate; % cells stained by competitor PE-AB7 after block. The procedure: as §1, §2
For assay [16] the target is unchanged. The assay is described as follows: flow cytometry blocking, human PBMC, CD3+ gate; % cells stained by competitor PE-AB8 after block. The procedure:
as §1, §2

Assay [17] shares this target. The assay is described as follows: flow cytometry blocking, human PBMC, CD3+ gate; % cells stained by competitor PE-433H after block. As for the experimental part: as §1, §2
Assay [18] has the same target. The assay can be described thus: flow cytometry blocking, human PBMC, CD3+ gate; % cells stained by competitor PE-AB10 after block. The procedure:
as §1, §2

Assay [19] has the same target. The assay is described as follows: flow cytometry blocking, human PBMC, CD3+ gate; % cells stained by competitor PE-AB11 after block. The procedure: as §1, §2
The target is the same in assay [20]. The assay is described as follows: flow cytometry blocking, human PBMC, CD3+ gate; % cells stained by competitor PE-AB12 after block. The procedure:
as §1, §2

For assay [21] the target is unchanged. The assay is described as follows: flow cytometry blocking, human PBMC, CD3+ gate; % cells stained by competitor PE-AB13 after block. As for the experimental part: as §1, §2
Assay [22] shares this target. The assay is described as follows: flow cytometry blocking, human PBMC, CD3+ gate; % cells stained by competitor PE-AB14 after block. As for the experimental part: as §1, §2
The target is the same in assay [23]. The assay can be described thus: flow cytometry blocking, human PBMC, CD3+ gate; % cells stained by competitor PE-AB15 after block. The procedure: as §1, §2
Assay [24] shares this target. The assay is described as follows: flow cytometry blocking, human PBMC, CD3+ gate; % cells stained by competitor PE-L263G8 after block. The procedure:
as §1, §2

T1 sequence (P51685 whole entry): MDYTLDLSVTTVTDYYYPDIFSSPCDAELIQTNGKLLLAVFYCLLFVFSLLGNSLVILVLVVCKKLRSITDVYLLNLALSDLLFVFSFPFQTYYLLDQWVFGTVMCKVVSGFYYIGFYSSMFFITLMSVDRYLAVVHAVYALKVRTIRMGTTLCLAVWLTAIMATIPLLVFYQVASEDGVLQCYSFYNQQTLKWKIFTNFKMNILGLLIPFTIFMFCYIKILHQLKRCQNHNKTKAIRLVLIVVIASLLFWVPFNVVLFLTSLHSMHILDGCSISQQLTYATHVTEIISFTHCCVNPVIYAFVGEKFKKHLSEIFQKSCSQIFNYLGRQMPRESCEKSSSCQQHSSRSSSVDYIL

B1: anti-CCR8 monoclonal antibody AB7 (antibody, V domains shown)
VH: AVQLVESGGGLVQPKESLKISCAASGFTFSYAAMYWVRQTPGKGLEWVARIRTKPNNYATYYADSVKGRFTISRDDSKSMVYLQMDNLKSEDTAMYYCNIMGITRGYYFDYWGQGVMVTVSS
VL: DIQMTQSPSFLSASVGDRVTINCKASQNINRYLNWYQQQLGEAPKLLIYNANNLQTGIPSRFSGSRSGTDFTLTISSLQPEDVATYFCLQHNSWPWTFGGGTKLELK
notes: Hybridoma monoclonal; also called antibody 7; clone 7
On to B1, for which the “% Blocking” value in [1] was -4.7%; in assay [2], -0.24%; in [3], 83.8%; in assay [4], 92.9%; in assay [5], 87.5%; in assay [6] it was 91.2%. Also, the “% Blocking” value in assay [7] was 98%; in assay [8] it was 99.3%; in assay [9] it was 85.6%; in [10] it was 96.3%; in [11], 87.1%; in assay [12] it was 79.7%. Also, the “% Positive cells” value in assay [13] came to 8.68%; in assay [14], 8.3%; in [15] it was 1.47%; in [16] it was 0.6%; in assay [17] it was 0.88%; in [18], 0.53%. The “% Positive cells” value in [19] was 0.14%; in assay [20], 0.05%; in [21], 0.96%; in assay [22], 0.26%; in assay [23] it was 0.85%; in assay [24], 1.19%.

B2: anti-CCR8 monoclonal antibody AB8 (antibody, V domains shown)
VH: AVQLVESGGGLVQPKESLKISCAASGFIFSNAAMYWVRQAPGKGLQWVARIRTKPKNYATYYIDSVKGRFTISRDDSKSMVYLQMDNLKTEDTAMYYCNTMGLTRAYYFDYWGQGVMVTVSS
VL: DIQMTQSPSFLSASVGDRVTINCKASQNINRYLNWYQQKLGEAPKLLIYNANSLQTGIPSRFSGSGSGTDFTLTIRSLQPEDVATYFCLQHNSWPWTFGGGTKLELK
notes: Hybridoma monoclonal; also called antibody 8; clone 8
As for B2, the “% Blocking” value in assay [1] is -7.96%; in assay [2], 1.33%; in assay [3], 6.48%; in assay [4] it was 18%; in assay [5], 88.1%; in assay [6], 89.2%. Moreover, the “% Blocking” value in [7] is 90.2%; in [8] it was 99.3%; in assay [9], 96.1%; in assay [10], 98.5%; in assay [11], 98.9%; in assay [12] it was 92.5%. The “% Positive cells” value was 8.95% in assay [13]; 8.17% in assay [14]; 8.51% in [15]; 6.94% in [16]; 0.84% in assay [17]; 0.65% in assay [18]. For the same molecule, the “% Positive cells” value was found to be 0.69% in assay [19]; 0.05% in assay [20]; 0.26% in assay [21]; 0.11% in [22]; 0.07% in assay [23]; 0.44% in assay [24].

B3: anti-CCR8 monoclonal antibody AB5 (antibody, V domains shown)
VH: QVQLKESGPGLVQPSQTLSLTCTVSGFSLTSYHVSWVRQPPGKGLEWMGVIWTGGSTTYNSLLKSRLSISRDISKSQVFLKMNSLQTEDTATYYCARGGTVVKGGFAYWGQGTLVTVSS
VL: DIQMTQSPASLSASLEEIVTITCQASQDIGNRLSWYQQKPGKSPQLLIYGATSLADGVPSRFSGSRSGTQYSLKISRLQVEDIGIYYCLQAYSTPLTFGSGTKLEIK
notes: Hybridoma monoclonal; also called antibody 5; clone 5
For the molecule B3, the “% Blocking” value in [1] is 84.9%; in [2], 96.1%; in assay [3] it was -7.14%; in assay [4] it was 0.12%; in [5], -0.99%; in assay [6] it was -23.1%. Further, the “% Blocking” value is -1.71% in assay [7]; -0.13% in [8]; -5.41% in assay [9]; 9.26% in assay [10]; -2.58% in assay [11]; -22.1% in [12]. In addition, the “% Positive cells” value was 1.25% in [13]; 0.32% in assay [14]; 9.75% in assay [15]; 8.45% in assay [16]; 7.14% in assay [17]; 7.42% in assay [18]. The “% Positive cells” value in assay [19] amounted to 7.14%; in assay [20], 7.54%; in assay [21], 7.01%; in [22] it was 6.47%; in assay [23], 6.75%; in assay [24], 7.17%.

B4: anti-CCR8 monoclonal antibody AB6 (antibody, V domains shown)
VH: QVQLKESGPGLVQPSQTLSLTCTVSGFSLTSYHVSWVRQPPGKGLEWMGVIWTGGSTTYNSLLKSRLSISRDISKSQVFLKMNSLQTEDTATYYCARGGTVVKGGFAYWGQGTLVTVSS
VL: DIQMTQSPASLSASLEEIVTITCQASQDIGNRLSWYQQKPGKSPQLLIYGATSLADGVPSRFSGSRSGTQYSLKISRLQVEDIGIYYCLQAYSTPLTFGSGTKLEIK
notes: also called antibody 6; clone 6
Regarding B4, the “% Blocking” value in assay [1] came out at 7.24%; in assay [2], 12.4%; in assay [3], 83%; in assay [4] it was 85.2%; in [5], 9.05%; in assay [6], 6.97%. In addition, the “% Blocking” value in assay [7] was -9.26%; in [8], 5.71%; in assay [9], 2.41%; in assay [10], 10.2%; in assay [11], 10%; in assay [12], -12.1%. For the same molecule, the “% Positive cells” value in assay [13] was 7.69%; in [14] it was 7.25%; in [15], 1.55%; in [16], 1.25%; in assay [17], 6.43%; in [18] it was 5.61%. In addition, the “% Positive cells” value in assay [19] amounted to 7.67%; in assay [20] it was 7.1%; in assay [21], 6.49%; in [22] it was 6.4%; in assay [23], 5.92%; in assay [24], 6.58%.

The values are drawn from US20240360228A1 (BIOLEGEND, published 2024).
